Source: the supplement of paper PMC10567573

B1: KCNG1 (parent)
chain: AVNLSVSTLPSLREEEEQVRAHAP

Variants of: B1
Test: protein stability index of a GFP-peptide fusion (GPS, HEK-293T) (PSI 1-6); higher = more stable
Details: c terminus: a fixed tail appended
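Also: lentivirally expressed fusions sorted by FACS into six bins by GFP to DsRed ratio, PSI derived from sequencing read proportions per bin multiplied by bin number.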

Protein stability index of substitutions, site by site:
H22: Y 4.87, W 3.02, T 4.91, M 5.28, G 5.29, S 5.49, N 5.26, E 5.62, R 5.22, I 4.45, P 4.62, K 5.49, L 4.83, D 5.01, Q 4.57
V19: W 4.46, T 4.9, C 4.84, N 5.09, R 4.73, F 4.62, I 5.15, Y 4.71, D 5.33, A 4.98, H 5.08, K 5.07, P 5.36, S 5.33, M 4.85, G 5.21, L 5.14, Q 5.24, E 5.3
E14: S 4.98, R 4.24, Q 4.87, F 3.56, K 4.3, I 4.37, P 4.8, T 4.54, H 4.56, C 4.16, G 4.56, Y 4.34, M 4.11, D 4.96, L 4.51, W 3.9, N 4.46, V 4.39, A 4.39
A21: I 4.11, R 4.99, S 4.96, Q 5.25, N 4.28, G 5.13, P 4.97, F 3.75, T 4.54, M 4.27, W 3.35, V 4.36, D 5.32, H 4.68, E 4.52, Y 3.93, K 4.64, C 4.74, L 4.71
P24: L 4.94, C 5.04, I 4.58, R 5.08, F 4.42, Q 5.23, G 5.37, N 5.34, A 5.57, Y 4.41, S 4.84, K 4.92, M 4.55, D 5.57, E 5.61, T 5.36, V 5.11, H 5.41, W 4
E16: R 4.18, S 4.27, Q 4.27, H 4.49, M 3.56, W 3.38, K 4.46, F 3.59, C 4.26, N 4.26, A 4.48, L 3.82, G 4.67, D 5.26, V 4.32, I 3.27, Y 3.63, T 4.12, P 3.96
E17: R 4.61, L 4.11, N 4.73, C 4.2, S 4.61, W 3.08, Y 3.6, D 4.73, K 4.43, T 4.32, Q 4.69, M 4.46, F 3.23, I 4.23, V 4.38, H 4.43, G 4.64, P 4.71, A 4.67
A23: C 4.86, P 5.29, N 5.26, Y 4.3, G 5.71, Q 5.27, D 5.3, K 5.1, V 5.07, T 4.87, F 4.1, E 4.82, S 5.2, M 4.83, L 5.02, H 4.87, I 4.82, R 5.04, W 4.32
R20: C 4.79, Q 5.12, V 4.94, G 5.48, E 5.63, Y 4.75, T 5.27, W 4.55, D 5.96, I 5.14, F 4.48, M 5.2, K 5.17, P 5.17, A 5.56, N 5.3, L 5.37, S 4.75, H 5.06
